# Columns and labels:
# [1] = biological target: human LOX-1 expressed on the cell surface (human) (UniProt P78380); experiment: flow cytometry, DI-oxLDL on CHO/LOX-1 cells
# [2] = biological target: human LOX-1 expressed on the cell surface (human) (UniProt P78380); experiment: flow cytometry: DI-oxLDL (0-100 ug/ml) on CHO/LOX-1 cells, 60 min at 4 C, MFI
# [3] = biological target: purified recombinant human LOX1 comprised of the extracellular domain (ECD) of human LOX-1 (amino acids 61-273) with an N-terminal polyhistidine tag (human) (UniProt P78380); experiment: AlphaScreen competition on His-LOX-1, unlabelled competitor titrated; labelled ligand biotin-CRP (1 ug/ml) with His-LOX-1 (1 ug/ml) by the panel list of paragraph 265; later sentences of paragraph 265 cite 2B and 2C the other way and the sheet prints no title
# [4] = biological target: human LOX-1 expressed on the cell surface (human) (UniProt P78380); experiment: flow cytometry: DI-oxLDL (0-100 ug/ml) on CHO/LOX-1 cells, 60 min at 4 C; y axis MFI Signal
substance,measurement,setting,value
Human oxidized LDL,Kd,[1],22 mg/L
same,Kd,[2],22 mg/L
same,IC50 (read off the curve),[3],0.2 mg/L
same,Bmax,[4],96.6

# Reference: patent US20090311271A1
